Measurements reported in patent publication CN110872347A (TIANJIN TIMMUNE BIOTECH INC, dated 2020).

B1: 融合蛋白M3-E7-Fc (Fc fusion, not shown: a dimerising Fc or GST)
chain: VQLVASGGGLVPPGGSLRLSCAASGRTFNVDAMAWFRQTRGKEREFVAAISRSGGSTYYADSVKGRFSISKDNAKNTMYLQMNSLKPEDTAIYYCAAAIYWRGSYYTEGNYDYWGQRTQVTVSS
B2: 融合蛋白M3-D9-Fc (Fc fusion, not shown: a dimerising Fc or GST)
chain: VQLVETGGGLVQPGGSLRLSCAASGFTFSDYAIQWVRQAPGKGLGRVSYINSGGDTTYYADSVKGRFSIARDNAKNTVYLQMNSLKPEDTAVYYCYAGGYWGQGTQVTVSS

Target: HLA-A2/…抗原复合物 (human)
Assay: SPR, Biacore T200, antigen on SA chip, Fc fusion as analyte 1-20 nM, Bivalent Analyte model

Binder	Kd [nM]	koff [s⁻¹]	kon [M⁻¹ s⁻¹]
B1	9	0.0309	3.43e+06
B2	25	0.0171	678000
